B1: FD-5D human monoclonal antibody (IgG1) (antibody, V domains shown)
VH: EVQLVESGGGLVQPGGSLRLSCAASGFTFSSYSMNWVRQAPGKGLEWVSYISSSSSTIYYADSVKGRFTISRDNAKNSLYLQMNSLRAEDTAVYYCASPGGITAAGTSVLFGYYGMDVWGQGTTVTVSS
VL: not shown
notes: source: ExpiCHO cells, purified (MabSelect SuRe, desalted)
B2: REGN10933 monoclonal antibody (antibody, V domains shown)
VH: QVQLVESGGGLVKPGGSLRLSCAASGFTFSDYYMSWIRQAPGKGLEWVSYITYSGSTIYYADSVKGRFTISRDNAKSSLYLQMNSLRAEDTAVYYCARDRGTTMVPFDYWGQGTLVTVSS
VL: DIQMTQSPSSLSASVGDRVTITCQASQDITNYLNWYQQKPGKAPKLLIYAASNLETGVPSRFSGSGSGTDFTFTISGLQPEDIATYYCQQYDNLPLTFGGGTKVEIK
notes: as for B1
B3: REGN10987 monoclonal antibody (antibody, V domains shown)
VH: QVQLVESGGGVVQPGRSLRLSCAASGFTFSNYAMYWVRQAPGKGLEWVAVISYDGSNKYYADSVKGRFTISRDNSKNTLYLQMNSLRTEDTAVYYCASGSDYGDYLLVYWGQGTLVTVSS
VL: QSALTQPASVSGSPGQSITISCTGTSSDVGGYNYVSWYQQHPGKAPKLMIYDVSKRPSGVSNRFSGSKSGNTASLTISGLQSEDEADYYCNSLTSISTWVFGGGTKLTVL
notes: also called REGN10977 (as printed once)
B4: EY-6A human monoclonal antibody (IgG1) (antibody, V domains shown)
VH: EVQLVESGGGVVQPGRSLRLSCAASAFTFSSYDMHWVRQAPGKGLEWVAVISYDGSNKYYADSVKGRFTISRDNSKNTLYLQMNSLRAEDTAVYYCAKDGGKLWVYYFDYWGQGTLVTVSS
VL: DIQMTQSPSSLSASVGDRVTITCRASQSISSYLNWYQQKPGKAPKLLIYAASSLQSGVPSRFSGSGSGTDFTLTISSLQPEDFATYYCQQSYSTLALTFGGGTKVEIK
B5: FD-11A human monoclonal antibody (IgG1) (antibody, V domains shown)
VH: EVQLVESGGGVVQPGRSLRLSCAASGFTFSSYGMHWVRQAPGKGLEWVAVIWYDGSNKYYADSVKGRFTISRDNSKNTLYLQMNSLRAEDTAVYYCAKGPDILTGYYNYYYYGMDVWGQGTMVTVSS
VL: QSVLTQPPSVSGAPGQRVTISCTGSSSNIGAGYDVHWYQQLPGTAPKLLIYGNSNRPSGVPDRFSGSKSGTSASLAITGLQAEDEADYYCQSYDSSLSGFYVVFGGGTKLTVL
B6: FI-3A human monoclonal antibody (IgG1) (antibody, V domains shown)
VH: EVQLLESGGGLIQPGGSLRLSCAASGFTVSSNYMSWVRQAPGKGLEWVSVIYSGGSTYYADSVKGRFTISRDNSKNTLYLQMNSLRAEDTAVYYCARDHVRPGMNIWGQGTMVTVSS
VL: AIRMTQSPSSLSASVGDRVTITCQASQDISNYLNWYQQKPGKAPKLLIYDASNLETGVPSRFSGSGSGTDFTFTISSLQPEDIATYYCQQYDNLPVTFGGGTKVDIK

Target: RBD-VLP (SARS-CoV-2, UniProt P0DTC2)
Assay: ELISA
Conditions: both partners purified

| Binder | binding result |
| --- | --- |
| B1 | binds |
| B2 | binds |
| B3 | binds |
| B4 | binds |
| B5 | binds |
| B6 | binds |

Target: T1, SARS-CoV-2 spike protein (Wuhan strain), full length, expressed on MDCK cells (SARS-CoV-2, UniProt P0DTC2)
T1 construct: source: MDCK-SIAT1 cells stably transfected (lentiviral vector), on cells
Assay: flow cytometry on cells
Conditions: one partner purified

| Binder | binding result |
| --- | --- |
| B4 | binds |
| B5 | binds |
| B6 | binds |
